Assay results: article PMC6469932 (Biochemistry, 2018)

B1: SmGhrB, glyoxylate/hydroxypyruvate reductase of subfamily GHRB from Sinorhizobium meliloti 1021 (enzyme, UniProt Q92LZ4 1-322, looked up)
chain: MSRPRILVPGKINPRVLERLPEMFETVRIERADAALVTADMRDVSGIAVSGKLPVPLMDAFPSLEIVANFGVGYDGVDVSRAAARGIVVTNTPDVLTEEVADTAIGLLLNTLRLLPQAEQWLRQGRWVREGAFPLSPLSLRGRTVGLFGLGRIGLAIARRLEAFGVSIAYHTRTPREGLGFTYHPTLVGMAEAVDTLIVIVPGTASTLKAVNADVLSALGPKGVLINVGRGSTVDEAALVTALQNGTIAGAGLDVFENEPNVPEALLSFPNVSLLPHVASASVVTRNAMSDLVVDNLKAWFSTGEALTPVAETPFRRRAIQN
B2: SmGhrA, glyoxylate/hydroxypyruvate reductase of subfamily GHRA from Sinorhizobium meliloti 1021 (enzyme, UniProt Q92T34 1-319, looked up)
chain: MPAKSPVIVDLKFIPEEVEAALAGAFPGREVIDLADPAHQERDLSGIDYAVVWKSAPDLFSRAPDLKVVFSGGAGVDHVLTLPGLPDVPLVRFVDRTLTTRMSEWVMMQCLLHLRQHRAYEALAKKHEWRDLSQPEAADVTVGIMGMGVLGQDAARKLAAMGFKVIGWSRSKRVIEGVETYDAAGLDAFLGRTDFLVGLLPLTPDTRGIFNAALFAKLSRNGPFGAPVFINAGRGGSQVEADILECLDSGVLGGASLDVFEREPLSPESRFWDMPNVYVTPHVAASSDVRALFVHVEHQIARFESGLPLEHVVDKVAGY

Columns and labels:
[1] = biological target: the molecule itself; test: crystal structure
[2] = substrate: O=C(O)C(=O)[C@@H](O)[C@H](O)[C@H](O)CO; test: purified protein; assay type: biochemical, Sinorhizobium meliloti; details: 0.4 mM NADPH, 150 mM NaCl, 150 mM Tris-HCl pH 7.5, 25 °C
[3] = substrate: O=C(O)C(=O)Cc1ccccc1; test: purified protein; assay type: biochemical, Sinorhizobium meliloti; details: 0.4 mM NADPH, 150 mM NaCl, 150 mM Tris-HCl pH 7.5, 25 °C
[4] = substrate: CC(=O)C(=O)O; test: purified protein; assay type: biochemical, Sinorhizobium meliloti; details: 0.4 mM NADPH, 150 mM NaCl, 150 mM Tris-HCl pH 7.5, 25 °C
[5] = substrate: O=C(O)C(=O)CO; test: purified protein; assay type: biochemical, Sinorhizobium meliloti; details: 0.4 mM NADPH, 150 mM NaCl, 150 mM Tris-HCl pH 7.5, 25 °C

Row | Protein | stoichiometry N [1] | K0.5 [2] [mM] | kcat/Km [2] [M⁻¹ s⁻¹] | K0.5 [3] [mM] | kcat/Km [3] [M⁻¹ s⁻¹] | K0.5 [4] [mM] | kcat/Km [4] [M⁻¹ s⁻¹] | K0.5 [5] [mM] | kcat/Km [5] [M⁻¹ s⁻¹]
1 | B1 | 2 | 11.0 ± 2.0 | 935 ± 84 | 5.59 ± 0.92 | 372 ± 38 |  |  |  | 
2 | B2 | 2 |  |  | 6.58 ± 0.73 | 267 ± 18 | 9.69 ± 0.80 | 57.3 ± 3.4 | 9.35 ± 0.86 | 1200 ± 61
